To fix the notation:
B1: recombinant PII, tag not stated for this experiment (natural protein, UniProt Q55247 1-112, looked up)
chain: MKKVEAIIRPFKLDEVKIALVNAGIVGMTVSEVRGFGRQKGQTERYRGSEYTVEFLQKLKIEIVVDEGQVDMVVDKLVSAARTGEIGDGKIFISPVDSVVRIRTGEKDTEAI

Read-outs that look alike come from different tables or passages of the source.

Data set [1] concerns the molecule itself. In words: SEC-MALS. In general terms: In gel filtration, larger molecules generally elute earlier.
Data set [2] has as its target T1, C-terminally His8-tagged PII (UniProt Q55247 1-112). In words: BLI. (Biolayer interferometry detects binding as a change in optical thickness at a sensor tip.)
In data set [3] the target is T2, His6-tagged 2,3-bisphosphoglycerate-independent phosphoglycerate mutase (PGAM, Slr1945) (Synechocystis sp. PCC 6803, UniProt P74507 1-532).
T2 sequence (looked up): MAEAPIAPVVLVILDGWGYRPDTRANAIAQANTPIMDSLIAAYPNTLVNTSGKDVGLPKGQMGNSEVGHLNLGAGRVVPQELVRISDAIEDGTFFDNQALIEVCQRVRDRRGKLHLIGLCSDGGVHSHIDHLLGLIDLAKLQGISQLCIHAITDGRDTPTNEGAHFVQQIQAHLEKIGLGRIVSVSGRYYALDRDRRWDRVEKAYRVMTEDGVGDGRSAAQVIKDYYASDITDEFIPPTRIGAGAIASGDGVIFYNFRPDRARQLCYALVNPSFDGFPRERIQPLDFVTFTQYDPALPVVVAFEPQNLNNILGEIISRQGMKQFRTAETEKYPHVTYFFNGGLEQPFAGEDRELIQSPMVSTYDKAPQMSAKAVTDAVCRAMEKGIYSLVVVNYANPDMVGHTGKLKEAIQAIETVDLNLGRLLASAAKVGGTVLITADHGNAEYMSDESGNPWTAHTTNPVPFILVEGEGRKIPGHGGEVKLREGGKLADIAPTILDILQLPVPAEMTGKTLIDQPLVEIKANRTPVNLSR
Description: BLI.

The target of data set [4] is T1, C-terminally His8-tagged PII. Description: BLI. This is another data set of the same source.
Data set [5] has as its target T2, His6-tagged …. Description: BLI. This is another data set of the same source.
In data set [6] the target is B1. In words: SEC-MALS.
Data set [7] addresses T1, C-terminally His8-tagged PII. In words: SPR.

With B1, in data set [1], the “stoichiometry N” value stood at 3.

B2: Strep-tagged PirC (Sll0944), 112 amino acid version starting at Met 53 (natural protein, Synechocystis sp. PCC 6803, UniProt P77971 53-164, looked up)
chain: MSQILDPIPNNQPSALFCCYVNATNQIQVARITNVPNWYFERVVFPGQRLVFEAVPSAQLEIHTGMMASSIISDTIPCEQLSIDPDGLAAGGFISPEKEHESEDMTSQSLVA
As to B2, the Kd in data set [2] turned out to be 37.3 ± 2.5 nM; in data set [3] it was 459 nM; in data set [4], 14.1 ± 0.7 nM; in data set [5] it was 1700 nM.

B3: recombinant PirC (Sll0944), 112 amino acid version, tag not stated for this experiment (natural protein, Synechocystis sp. PCC 6803, UniProt P77971 53-164, looked up)
chain: MSQILDPIPNNQPSALFCCYVNATNQIQVARITNVPNWYFERVVFPGQRLVFEAVPSAQLEIHTGMMASSIISDTIPCEQLSIDPDGLAAGGFISPEKEHESEDMTSQSLVA
On to B3, for which the “stoichiometry N” value was 1 PirC monomer per PII trimer in data set [6], 2 in data set [1] and ~1 PirC monomer per PII trimer in data set [7].

The stoichiometry N is a count of units in the complex or per binding partner. For orientation: Kd means the free concentration of one partner at which half of the binding sites on the other are occupied at equilibrium, for simple one-to-one binding. A high value points to lower affinity.

The values are drawn from paper doi:10.1101/2020.09.11.292599 (bioRxiv, 2020).
